# Measurements taken from the supplement of paper PMC10567573.
# ± gives the standard deviation.
# Experiment: protein stability index of a GFP-peptide fusion (GPS, HEK-293T) (PSI 1-6); higher = more stable
# [1] = treatment: DMSO, c terminus: a fixed tail appended
# [2] = treatment: MLN4924 1 uM, 8 h, c terminus: a fixed tail appended
# [3] = treatment: DMSO, c terminus: native
# [4] = treatment: MLN4924 1 uM, 8 h, c terminus: native
# 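Also: 24-mer peptide tiles fused after GFP, lentivirally expressed, FACS-sorted into six equal bins by GFP/DsRed ratio, decoded by Illumina sequencing, PSI is the read-weighted mean bin number.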
Sequence,protein stability index [1],protein stability index [2],protein stability index [3],protein stability index [4]
AAAAAAASAAAATAAFTTAKAAAL [SPAG8],2.33 ± 0.26,2.62 ± 0.75,–,–
AAAQSYPGYLPYSPEPPSLYGALN [IRX6],2.68 ± 0.077,2.87 ± 0.2,–,–
AAETASLEEQLQGWGEVMLMADKV [ARL6IP1],4.53 ± 0.082,4.45 ± 0.19,–,–
AAFQTILTEIYRIVSQKQMSDRRE [RAB11A],2.77 ± 0.42,2.52 ± 0.36,–,–
AALELLPRELFPPLFMAAFDGRHS [PRAME],2.27 ± 0.38,2.4 ± 0.18,–,–
AALHMVIVAAFTWAFTLFFEVSE [KMT2E],–,–,2.48 ± 0.21,2.34 ± 0.16
AAPLPERNSLSAIFNNVMTLCAML [SLC29A1],2.57 ± 0.14,2.57 ± 0.31,–,–
AATPRTNSVISVCSSSNLAGNDDS [DLC1],5.08 ± 0.3,5.17 ± 0.083,–,–
AAVKENQMTPTNLAVCLAPSLFHL [DLC1],2.37 ± 0.06,2.61 ± 0.33,–,–
ADISEAEQRTIQAQKESLQNQHHS [APBB1IP],5.2 ± 0.38,5.23 ± 0.15,–,–
AEALYQTKFQELQLAAGRHGDDLK [KRT71],4.61 ± 0.28,4.71 ± 0.13,–,–
AEEYRLKEHYLTFEKSRYETYIHL [PSD2],1.93 ± 0.2,2.01 ± 0.46,–,–
AEKVNQDMCMKVPDDPEHLAARRQ [CRYL1],5.27 ± 0.61,5.15 ± 0.26,–,–
AFEPEALGNLVEGMDFHRFYFENA [CAMK2D],2.86 ± 0.44,2.78 ± 0.54,–,–
AFHPLFSLTSGACRLDYRRPENRS [TCF25],2.29 ± 0.41,2.24 ± 0.24,–,–
AFLEPDETFIVPDSFLVALDMDDG [SPSB1],3.46 ± 0.25,3.65 ± 0.48,–,–
AGGNSSSSAAMQSSCSSTSGGGGG [CCDC6],5.08 ± 0.11,5.035 ± 0.022,–,–
AGHCSASPGPAAPTARMPGRLRG,–,–,3 ± 0.6,2.93 ± 0.73
AGSFSRRLIKRFSFKSKPKANGNP [C2CD2L],3.19 ± 0.21,3.55 ± 0.15,–,–
AIFWIVFLLLIVFYTAITKKIFKS [P2RY14],2.42 ± 0.6,2.27 ± 0.2,–,–
AKELTAEKRLEGQEEEEDNRDSSM [CHGA],5.67 ± 0.22,5.61 ± 0.31,–,–
AKHRLVPPAQGRVSRRLSPRKVST [TRIM9],4.37 ± 0.23,4.65 ± 0.12,–,–

Sequence,protein stability index [1],protein stability index [2],protein stability index [3],protein stability index [4]
AKLHDVELHQVAERVEALGQFVMK [GNB5],3.78 ± 0.2,3.74 ± 0.14,–,–
ALEQGGLRAATMSAVEAATCRAKE [PYCR3],4.68 ± 0.3,4.96 ± 0.14,–,–
ALKRFVNLVARHPLFSEDVVLKLF [SNX8],2.38 ± 0.88,2.46 ± 0.1,–,–
ALRNLPPLRAAHRRFNFDTDRPLL [SMG5],2.72 ± 0.21,2.85 ± 0.45,–,–
ALSLLELLGFNLTFVFLASLLVLI [CLCN6],3.23 ± 0.93,2.69 ± 0.97,–,–
ALVQEKIQKRNQRQSGDRRQLPPP [WAS],4.31 ± 0.24,4.59 ± 0.086,–,–
ANSAFAVDLFKQLCEKEPLGNVLF [SERPINB5],2.08 ± 0.29,2.47 ± 0.3,–,–
APAPAPEEWLDILGNGLLRKKTLV [FKBP8],3.19 ± 0.32,3.24 ± 0.27,–,–
APATGSGTPGPFTKEGGMLAYYEV [CHIT1],2.55 ± 0.25,2.63 ± 0.16,–,–
APDGSYFAWSQGHRTVKLVPWSQC [WSB1],2.57 ± 0.47,2.8 ± 0.42,–,–
APFPNVSTSLLTSAGNRTHKARTR [ADAMTSL2],4.68 ± 0.25,4.64 ± 0.29,–,–
APLLPHITATSLLGTRESDTEVIT [BCL2L13],4.58 ± 0.26,4.47 ± 0.2,–,–
APLTISRVHAGSKAALAALCPGDL [PDLIM4],3.62 ± 0.37,3.65 ± 0.28,–,–
APQNSFSAKLAPHYFHSISYKIEE [KCNK9],3.21 ± 0.12,3.34 ± 0.16,–,–
APWNYHYHCPGSPDHQVPYGHDYP [TRAF3IP2],2.6 ± 0.46,3.23 ± 0.3,–,–
AQPQGAPCCSSSPEEPLNGESYES [FEM1A],5.41 ± 0.19,5.53 ± 0.2,–,–
ARGDAVCTACGSVLEDNIIVSEVQ [BRF1],4.38 ± 0.19,4.34 ± 0.077,–,–
ARGPGPEGGGGGSYFSGQGSDTGA [JUNB],5.11 ± 0.27,4.91 ± 0.18,–,–
ARIQQSRRQCHAEEDQSQVPEAG [SMIM2],–,–,3.25 ± 0.4,3.29 ± 0.31
ARLAADDFRVKYETELAMRQSVEN [KRT18],4.39 ± 0.19,4.44 ± 0.21,–,–
ARVTGELTMTFPAGIVRVFSGTPP [FCHO1],2.51 ± 0.16,2.43 ± 0.23,–,–
ASALRTRMTGGRPPLPPPDDPATL [DYRK1B],4.65 ± 0.13,4.87 ± 0.23,–,–

Sequence,protein stability index [1],protein stability index [2],protein stability index [3],protein stability index [4]
ASLHTLLGDPCPMLESPGAPCRSA [HDAC6],3.62 ± 0.23,3.83 ± 0.27,–,–
ASSGDLTCGVCALELGSTEVLLDH [PLAGL1],2.68 ± 0.4,2.82 ± 0.49,–,–
ASSNVFSNFEQTQIQEFKEAFTLM [MYL5],3.49 ± 0.18,3.42 ± 0.27,–,–
ASTSTPSSTLVRPIRSRRALPPLR [FAM189A2],4.16 ± 0.17,4.21 ± 0.21,–,–
ATIFALSTMTSSVQIYNLSQNIQE [ATL3],3.03 ± 0.76,3.27 ± 0.71,–,–
ATKTEPKKLEKYLQKLSALLMTAD [ELOA2],2.54 ± 0.59,2.31 ± 0.54,–,–
ATLCLEFLLQNDANPSIRDKEGYN [ANKRD44],2.61 ± 0.26,2.73 ± 0.074,–,–
ATTSASDSLKPEQLDIEEEGRPGA [TFE3],5.5 ± 0.23,5.35 ± 0.12,–,–
AVARSPKRPAWGSRRFEAVGWWAL [POMT2],2.88 ± 0.97,2.49 ± 0.51,–,–
AVLRRIQLQPTSIEKEVFPIMAKE [GMPPB],2.52 ± 0.33,2.57 ± 0.36,–,–
AVQAQAGWLQHDFGHLSVFSTSKW [FADS1],2.23 ± 0.18,2.29 ± 0.33,–,–
AVQHFYNIKLEGKVPMHKLFLEML [ESRRG],2.06 ± 0.42,2.23 ± 0.22,–,–
AVQRFCLIGSLSKHESEYNTTRV [NETO1],–,–,2.85 ± 1.1,2.48 ± 0.6
AWEPRSESQASRKEEGLPEEEPSH [ZNF8],5.38 ± 0.59,5.59 ± 0.1,–,–
AYMGHLDVVALLINHGAEVTCKDK [ANKRD44],2.23 ± 0.39,2.44 ± 0.19,–,–
CAGPLEDAVTIPCGHTFCRLCLPA [TRIM15],2.69 ± 0.21,2.67 ± 0.37,–,–
CAKMEKDGYGMTPLLSASVTGHTN [FEM1C],3.58 ± 0.26,3.55 ± 0.11,–,–
CAQMLPPNLSPHAPWNYHYHCPGS [TRAF3IP2],2.56 ± 0.49,2.28 ± 0.29,–,–
CAVMNVVFITILIIALIALSVGQY [CD69],3.04 ± 0.34,2.47 ± 0.48,–,–
CDLADRELVVIIGWAKHIPGFSTL [ESRRG],2.92 ± 0.76,3.05 ± 0.56,–,–
CDQYSCALTGPVVDIVTGHARLSD [DHCR7],3.57 ± 0.25,3.71 ± 0.17,–,–
